# Results published in publication PMC5553161.
# Biological target: VAP-B (human (endogenous in Huh7)) (UniProt O95292)
# Assay: co-IP; lysates of Huh7 cells stably harboring wild-type, S225D or S225A SGRs immunoprecipitated with antibodies to NAP1L1, Bin1, VAP-A or VAP-B; Western blot for NS5A, quantified (n = 3)
# UniProt O95292, sequence (O95292 whole entry): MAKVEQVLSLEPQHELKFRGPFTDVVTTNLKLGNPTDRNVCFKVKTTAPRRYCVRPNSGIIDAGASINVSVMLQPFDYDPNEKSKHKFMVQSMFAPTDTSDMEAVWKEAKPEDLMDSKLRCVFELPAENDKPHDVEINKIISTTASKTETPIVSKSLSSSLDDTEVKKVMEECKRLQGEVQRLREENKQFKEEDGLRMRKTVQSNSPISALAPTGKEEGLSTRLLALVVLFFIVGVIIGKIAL
substance,measurement,value
One-Strep-tagged (OST) NS5A S225A of hepatitis C virus JFH-1 (genotype 2a) (natural protein),"reduction in the level bound, against wild type",50%
